Patent US20120258482

Target: purified recombinant 6x His-PCNA
Sequence (chain, as listed by the source): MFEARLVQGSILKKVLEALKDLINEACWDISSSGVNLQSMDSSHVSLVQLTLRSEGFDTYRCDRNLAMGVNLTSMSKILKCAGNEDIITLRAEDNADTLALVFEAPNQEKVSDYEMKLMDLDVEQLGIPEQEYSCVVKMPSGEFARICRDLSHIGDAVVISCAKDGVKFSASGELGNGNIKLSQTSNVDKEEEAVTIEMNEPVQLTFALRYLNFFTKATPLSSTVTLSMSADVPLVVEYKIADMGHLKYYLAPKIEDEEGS

B1: Flag-tagged C6orf211 protein fusion (Flag-Arm1) (protein)
chain: MAVVPASLSGQDVGSFAYLTIKDRIPQILTKVIDTLHRHKSEFFEKHGEEGVEAEKKAISLLSKLRNELQTDKPFIPLVEKFVDTDIWNQYLEYQQSLLNESDGKSRWFYSPWLLVECYMYRRIHEAIIQSPPIDYFDVFKESKEQNFYGSQESIIALCTHLQQLIRTIEDLDENQLKDEFFKLLQISLWGNKCDLSLSGGESSSQNTNVLNSLEDLKPFILLNDMEHLWSLLSNCKKTREKASATRVYIVLDNSGFELVTDLILADFLLSSELATEVHFYGKTIPWFVSDTTIHDFNWLIEQVKHSNHKWMSKCGADWEEYIKMGKWVYHNHIFWTLPHEYCAMPQVAPDLYAELQKAHLILFKGDLNYRKLTGDRKWEFSVPFHQALNGFHPAPLCTIRTLKAEIQVGLQPGQGEQLLASEPSWWTTGKYGIFQYDGPL
PCNA-dependent carboxyl methyltransferase activity (vapor diffusion assay): Significant levels of PCNA-dependent carboxyl methyltransferase activity was detected in the anti-Flag Flag-Arm1 expressing extracts, and this activity was not present in the immunoprecipitates from control extracts
